The record followed here is patent publication US20120210456A1 (MENDEL BIOTECHNOLOGY, published 2012).

This experiment deals with T1, SALT TOLERANCE HOMOLOG2 (STH2) (Arabidopsis thaliana, UniProt Q9LQZ7 1-331, limits assumed).
T1 construct: also called G1482
T1 sequence: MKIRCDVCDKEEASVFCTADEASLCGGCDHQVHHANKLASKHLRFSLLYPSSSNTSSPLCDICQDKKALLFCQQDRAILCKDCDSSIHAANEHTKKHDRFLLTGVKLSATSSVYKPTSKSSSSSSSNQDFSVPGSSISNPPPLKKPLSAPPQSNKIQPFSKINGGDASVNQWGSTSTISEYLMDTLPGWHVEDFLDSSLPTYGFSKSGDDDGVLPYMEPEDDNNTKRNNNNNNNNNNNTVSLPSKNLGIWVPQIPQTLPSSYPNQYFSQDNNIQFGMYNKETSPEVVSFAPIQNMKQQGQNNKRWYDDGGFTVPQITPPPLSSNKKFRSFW
Briefly: in vitro and protoplast based studies (methods not described).

B1: G1988 (other)
chain: MVSFCELCGAEADLHCAADSAFLCRSCDAKFHASNFLFARHFRRVICPNCKSLTQNFVSGPLLPWPPRTTCCSESSSSSCCSSLDCVSSSELSSTTRDVNRARGRENRVNAKAVAVTVADGIFVNWCGKLGLNRDLTNAVVSYASLALAVETRPRATKRVFLAAAFWFGVKNTTTWQNLKKVEDVTGVSAGMIRAVESKLARAMTQQLRRWRVDSEEGWAENDNV
notes: also called B-box zinc finger transcription factor G1988
Turning to B1, the binding result is “binds”.
